1 molecule from US20210275657A1 (published 2021) can be followed below.

In experiment [1] the target is T1, GATA3 neoORF (frameshift mutation of GATA3), common region peptide on HLA-A*02:01 (human). In words: Summary statement of the same IL-2 peptide titration with TCR-transduced Jurkat cells and peptide loaded HEK 293T cells; full-length, on cells.
Experiment [2] concerns the target T1, GATA3 neoORF (frameshift mutation of …). The experiment can be described thus: IL-2 release (Meso Scale Discovery) by TCR-transduced Jurkat cells, 10:1 with HEK 293T cells (endogenous HLA-A02:01) loaded overnight with titrated GATA3 peptide; FIG. 44; full-length, on cells.

B1: GATA3 specific TCR clonotype 1 (TCR, V domains shown)
Valpha: SQKIEQNSEALNIQEGKTATLTCNYTNYSPAYLQWYRQDPGRGPVFLLLIRENEKEKRKERLKVTFDTTLKQSLFHITASQPADSATYLCALDIYGNNRLAFGKGNQVVVIP
Vbeta: DVKVTQSSRYLVKRTGEKVFLECVQDMDHENMFWYRQDPGLGLRLIYFSYDVKMKEKGDIPEGYSVSREKKERFSLILESASTNQTSMYLCASSLDFVLAGSYSYNEQFFGPGTRLTVL
With B1, the EC50 of peptide in experiment [1] is under 40 nM; in experiment [2], 37.9 nM.
